Experimental findings from patent publication US20050064507A1, “Determining kinase specificity” (priority 2003, published 2005) are described below.

T1 sequence (Q04759 whole entry): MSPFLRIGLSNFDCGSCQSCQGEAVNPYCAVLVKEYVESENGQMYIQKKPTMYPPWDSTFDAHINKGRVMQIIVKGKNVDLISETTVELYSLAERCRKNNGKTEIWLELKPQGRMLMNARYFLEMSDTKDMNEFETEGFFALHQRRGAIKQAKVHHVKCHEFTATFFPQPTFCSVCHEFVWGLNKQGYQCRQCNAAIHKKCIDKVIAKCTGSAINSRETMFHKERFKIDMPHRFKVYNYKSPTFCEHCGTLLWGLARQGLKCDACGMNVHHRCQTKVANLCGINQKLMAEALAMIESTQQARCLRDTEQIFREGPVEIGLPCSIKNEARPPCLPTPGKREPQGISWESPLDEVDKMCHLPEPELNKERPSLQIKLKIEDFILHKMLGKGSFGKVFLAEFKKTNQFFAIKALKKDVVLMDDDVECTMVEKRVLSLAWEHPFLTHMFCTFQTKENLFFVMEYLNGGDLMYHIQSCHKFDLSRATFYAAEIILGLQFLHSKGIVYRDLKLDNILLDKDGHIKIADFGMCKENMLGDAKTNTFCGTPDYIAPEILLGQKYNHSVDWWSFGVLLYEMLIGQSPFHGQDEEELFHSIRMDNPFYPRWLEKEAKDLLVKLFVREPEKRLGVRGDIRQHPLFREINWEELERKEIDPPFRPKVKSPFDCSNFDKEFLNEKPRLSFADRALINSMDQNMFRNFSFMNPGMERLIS

One assay concerns the target T1, PKC-theta (Homo sapiens, UniProt Q04759).
T1 construct: His-tag; made in house; host or cells: baculovirus-infected Sf9 cells
The experiment in a line: In vitro kinase assay: peptide phosphorylation by PKC-theta. Format: biochemical. Particulars: normalized to best substrate. The procedure, abridged: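 Recombinant human PKC-theta, expressed in baculovirus-infected Sf9 cells and purified on a nickel chelating column, was incubated with biotinylated peptides, 100 μM ATP containing ^32P-gamma ATP, and PKC buffer with CaCl2, MgCl2, phosphatidyl serine and PMA at 30° C. Reactions were stopped with ATP/EDTA. Peptides were captured on streptavidin-coated plates, and phosphorylation was normalized to the best substrate.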
With 81 (KRERKTSSKSSVRKRR) [compound 81], the PKC theta phosphorylation turned out to be 46%.
On to 87 (RQGKRKTSIKRDTVNPL) [compound 87], for which the PKC theta phosphorylation was 65%.
As to 88 (KKPFKLSGLSFKRNRKE) [compound 88], the PKC theta phosphorylation came to 38%.
Take 91 (VHYTSKDTLRKRHYWR) [compound 91]: the PKC theta phosphorylation was 10%.
Still for that read-out and setting: in the case of 97 (KKRSSKKEASMKKVVRP) [compound 97] it was 31%; in that of 98 (AGPLRKSSLKKGGRL) [compound 98], 22%.

The same assay, now with this note: peptide concentration 1 uM.
On to “148 (RELEQLKAEYLERRASRRRA) [compound 148]”, for which the “phosphorylation by PKC theta” value is given as 34.
Same read-out and setting: in the case of 149 (RVVQSVKHTKRKSSTVMK) [compound 149] it was 13; in that of “150 (VDPFYEMLAARKKRISVKKK) [compound 150]”, 35; in that of “151 (PQNSLKASNRKKKRTSFKRK) [compound 151]”, 25.
Same read-out and setting: in the case of “152 (DLIEGRKGAQIVKRASLKRG) [compound 152]” it was 31; in that of “153 (TYLLPDKSRQGKRKTSIKRD) [compound 153]”, 22.

Still in this assay, the particulars now being: peptide concentration 10 uM.
As for “148 (RELEQLKAEYLERRASRRRA) [compound 148]”, the “phosphorylation by PKC theta” value amounted to 34.
Same read-out and setting: in the case of 149 (RVVQSVKHTKRKSSTVMK) [compound 149] it was 14; in that of “150 (VDPFYEMLAARKKRISVKKK) [compound 150]”, 35.
Still for that read-out and setting: in the case of “151 (PQNSLKASNRKKKRTSFKRK) [compound 151]” it was 19.
The same measure, in the same setting: in the case of “152 (DLIEGRKGAQIVKRASLKRG) [compound 152]” it was 30; in that of “153 (TYLLPDKSRQGKRKTSIKRD) [compound 153]”, 18.

The target of another assay is T2, AKT1 (Homo sapiens, UniProt P31749).
T2 construct: purchased Panvera
T2 sequence (P31749 whole entry, species assumed): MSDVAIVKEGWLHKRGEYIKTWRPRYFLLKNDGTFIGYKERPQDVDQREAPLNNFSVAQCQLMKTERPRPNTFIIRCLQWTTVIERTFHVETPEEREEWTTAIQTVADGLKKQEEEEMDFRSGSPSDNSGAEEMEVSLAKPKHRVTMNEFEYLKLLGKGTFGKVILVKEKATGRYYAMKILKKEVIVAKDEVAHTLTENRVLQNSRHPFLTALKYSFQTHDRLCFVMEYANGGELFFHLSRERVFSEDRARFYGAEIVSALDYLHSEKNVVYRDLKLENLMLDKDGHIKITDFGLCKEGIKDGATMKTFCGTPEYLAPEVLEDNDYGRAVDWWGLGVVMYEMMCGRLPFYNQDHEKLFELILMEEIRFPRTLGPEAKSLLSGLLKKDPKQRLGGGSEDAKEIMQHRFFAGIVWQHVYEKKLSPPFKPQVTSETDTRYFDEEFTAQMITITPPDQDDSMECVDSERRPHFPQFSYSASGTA
Description: In vitro kinase assay: peptide phosphorylation by AKT1. Particulars: normalized to best substrate. Type of assay: biochemical. On the procedure: (§1) Catalytically active preparations of the kinases of interest were either purchased or prepared. Purchased and tested active kinase preparations including the following: PKC-alpha, PKC-delta, PKC-epsilon, PKC-zeta, PKC-mu, PKA, PKG from Calbiochem, ROK alpha/ROCK-II, active from Upstate Biotechnology, and AKT1 from Panvera.
(§2) The conditions of the kinase assay and the amount of active kinase used varied with the kinase and with the accuracy needed. For a typical experiment, 5-20 ng of kinase was used per well and each peptide pool was assayed in duplicate wells. Note that the absolute amount of kinase used was not usually a critical parameter, because the desired information related to specificity of the kinase not its absolute activity, and robustness of the assay depends on comparisons of the same amount of kinase on different peptides. The combination of kinase concentration and assay duration was modified to assure that the stoichiometry of peptide phosphorylation never exceeded 5%. The choice of kinase buffer depended on the kinase being analyzed. For studies of PKC, 100 mM HEPES, 0.05% Triton-X100, 1 mM CaCl2, 20 mM MgCl2, 0.2 mg/ml phosphatidyl serine (Avanti Polar Lipids), PMA 100 ng/ml was typically used. The lipid stock was prepared by transferring 3 mg phosphatidyl serine into iced mixture of 450 μl water plus 50 μl of 10% Triton-X100, sonicating 10 times on ice for 1 sec each.
(§3) The kinase reaction mixture was assembled by sequential addition to a tube held on ice of: 5 μl peptide (100 μM for final concentration of 10 μM), 15 μl of kinase (typically 5 ng/well, in appropriate kinase buffer), 30 μl of ATP (1 uCi/well of ^32P-gamma ATP in a stock of 167 μM cold ATP in the kinase buffer; for final concentration for 100 μM ATP). The mixture was rapidly warmed to desired reaction temperature (30° C. for PKC) and incubated for the desired duration (usually 10 minutes). The kinase assay was terminated by transfer to 4° C. water batch, and rapid addition of an equal volume (50 μl) of stop solution [0.1M ATP+0.1M EDTA in water, pH 8].
(§4) The peptides were then captured from the reaction mixture by transfer to a Reacti-Bind Streptavidin High Binding Capacity Coated Plates (HBC) (Pierce Biotechnology) as follows. The HBC plates were pre-rinsed three times with PBS/Tween PBS/Tween20 0.05% (PBS/Tween). Part of all of the reaction mixture was then transferred wells of a HBC plate pre-filled with 90 μl of phosphate-buffered saline (PBS); typically each aliquots of each phosphorylation reaction were transferred to duplicate HBC plates to assure accuracy by additional replication
(§5) For kinase assays done at the standard peptide concentration of 10 μM, the peptide concentration in the reaction mixture becomes 5 μM after addition of the stop solution; consequently 10 μl of the reaction (50 pMoles of peptide) was transferred to the HBC plate. More generally, the amount of reaction mixture transferred was estimated to be about 50 pMoles of peptide. […] The HBC plates were incubated for 0.5 to 1.5 hr at room temperature for complete binding of biotinylated peptides to plate-bound streptavidin. The HBC plates were then washed extensively with PBS/Tween. Five washes were done routinely and additional wash steps were added if the wash solution removed from the plate had measurable radioactivity as detected using a Geiger counter. This step is essential to obtaining a good the signal to noise ratio because the fraction of radioactivity incorporated in the peptides was a tiny fraction of the total in the reaction mixture. The wells were air-dried. A volume of 40-50 μl of microScint-20 (Packard Instruments) was added to each well. The plates were covered with stick-on film sheet. Radioactive emissions were measured in a TopCount NXT Microplate Scintillation and Luminescence Counter (Packard Instruments). Typically samples were counted for 5 minutes (or more) to improve the signal to noise ratio when counts were low. […]
81 (KRERKTSSKSSVRKRR) [compound 81]: the AKT1 phosphorylation is 9%.
Same read-out and setting: in the case of 87 (RQGKRKTSIKRDTVNPL) [compound 87] it was 7%; in that of 88 (KKPFKLSGLSFKRNRKE) [compound 88], 10%.
Same read-out and setting: for 91 (VHYTSKDTLRKRHYWR) [compound 91] the value was 5%.
In the case of 97 (KKRSSKKEASMKKVVRP) [compound 97], the AKT1 phosphorylation was 10%.
Take 98 (AGPLRKSSLKKGGRL) [compound 98]: the AKT1 phosphorylation stood at 7%.

Another assay concerns the target T3, PKA (Homo sapiens, UniProt P17612).
T3 construct: purchased Calbiochem
The experiment in a line: In vitro kinase assay: peptide phosphorylation by PKA. Type of assay: biochemical. Particulars: normalized to best substrate. On the procedure:
as §1, §2, §3, §4, §5
In the case of 81 (KRERKTSSKSSVRKRR) [compound 81], the PKA phosphorylation amounted to 2%.
The same measure, in the same setting: in the case of 87 (RQGKRKTSIKRDTVNPL) [compound 87] it was 64%.
For 88 (KKPFKLSGLSFKRNRKE) [compound 88], the PKA phosphorylation is on record as 3%.
Turning to 91 (VHYTSKDTLRKRHYWR) [compound 91], the PKA phosphorylation is 3%.
Take 97 (KKRSSKKEASMKKVVRP) [compound 97]: the PKA phosphorylation is listed as 1%.
As for 98 (AGPLRKSSLKKGGRL) [compound 98], the PKA phosphorylation is recorded as 21%.
